The source of these data is PMC11673900 (Journal of Translational Medicine, 2024).

The experiment deals with GST-tagged PARP1, full-length (human, UniProt P09874 1-1014). Briefly: co-IP.
Sequence of GST-tagged PARP1, full-length (P09874 whole entry): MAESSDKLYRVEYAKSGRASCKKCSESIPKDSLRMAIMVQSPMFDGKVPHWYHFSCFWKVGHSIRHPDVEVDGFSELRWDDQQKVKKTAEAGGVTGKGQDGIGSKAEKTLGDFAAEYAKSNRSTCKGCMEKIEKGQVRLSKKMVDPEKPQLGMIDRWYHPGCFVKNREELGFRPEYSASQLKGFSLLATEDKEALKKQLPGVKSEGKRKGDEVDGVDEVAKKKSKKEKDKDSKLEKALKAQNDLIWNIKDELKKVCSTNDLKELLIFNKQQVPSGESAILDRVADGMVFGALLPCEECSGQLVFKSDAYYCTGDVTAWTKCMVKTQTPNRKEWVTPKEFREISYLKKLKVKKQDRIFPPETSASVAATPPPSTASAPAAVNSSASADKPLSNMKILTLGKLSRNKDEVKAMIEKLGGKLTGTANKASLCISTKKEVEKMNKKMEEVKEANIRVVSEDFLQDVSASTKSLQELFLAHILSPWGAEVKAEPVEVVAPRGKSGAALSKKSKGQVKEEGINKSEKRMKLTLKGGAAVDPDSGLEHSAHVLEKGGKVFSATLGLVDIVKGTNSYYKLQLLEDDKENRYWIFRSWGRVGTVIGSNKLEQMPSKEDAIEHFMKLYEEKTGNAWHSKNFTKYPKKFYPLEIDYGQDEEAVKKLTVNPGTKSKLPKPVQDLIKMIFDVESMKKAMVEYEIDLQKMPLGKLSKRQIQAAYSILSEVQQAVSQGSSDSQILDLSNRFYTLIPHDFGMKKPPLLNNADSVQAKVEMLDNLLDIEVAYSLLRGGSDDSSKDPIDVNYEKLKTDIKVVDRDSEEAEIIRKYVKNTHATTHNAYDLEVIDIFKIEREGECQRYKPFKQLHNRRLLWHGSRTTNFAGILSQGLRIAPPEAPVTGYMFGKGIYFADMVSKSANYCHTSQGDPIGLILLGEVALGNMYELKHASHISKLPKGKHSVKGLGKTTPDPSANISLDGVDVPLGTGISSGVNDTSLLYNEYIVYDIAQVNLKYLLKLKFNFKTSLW

B1: MBP-tagged NONO (natural protein, human, UniProt Q15233 1-471, looked up)
chain: MQSNKTFNLEKQNHTPRKHHQHHHQQQHHQQQQQQPPPPPIPANGQQASSQNEGLTIDLKNFRKPGEKTFTQRSRLFVGNLPPDITEEEMRKLFEKYGKAGEVFIHKDKGFGFIRLETRTLAEIAKVELDNMPLRGKQLRVRFACHSASLTVRNLPQYVSNELLEEAFSVFGQVERAVVIVDDRGRPSGKGIVEFSGKPAARKALDRCSEGSFLLTTFPRPVTVEPMDQLDDEEGLPEKLVIKNQQFHKEREQPPRFAQPGSFEYEYAMRWKALIEMEKQQQDQVDRNIKEAREKLEMEMEAARHEHQVMLMRQDLMRRQEELRRMEELHNQEVQKRKQLELRQEEERRRREEEMRRQQEEMMRRQQEGFKGTFPDAREQEIRMGQMAMGGAMGINNRGAMPPAPVPAGTPAPPGPATMMPDGTLGLTPPTTERFGQAATMEGIGAIGGTPPAFNRAAPGAEFAPNKRRRY
For the molecule B1, the binding result was “binds”.
